From patent US5444041A, “Convertible microemulsion formulations” (Ibah, Inc., priority 1992, dated 1995)

Legend:
Spraque-Dawley rats = experiment: Rectal instillation of calcitonin microemulsions, serum Ca+2 in rats; format: in vivo, rat
Experimental: A series of experiments was carried out in rats using the w/o microemulsions of this invention to evaluate them as a vehicle for the rectal delivery of the peptide calcitonin, (used in the treatment of hypercalcemia by lowering Ca++ serum levels), whereby the body fluids of the rat would serve to convert the microemulsion to an o/w emulsion and thus release the calcitonin.
Formulations were produced which ranged from 3% to 15% (v/v) aqueous phase and which ranged from liquids to gels at room temperature. The formulations contained, in addition to the aqueous phase, one to three oils and a blend of two emulsifiers. […] Three formulations with different oil blends were chosen for biological evaluation in juvenile, male rat model (Spraque-Dawley rats; 140-170 gm).
Three w/o microemulsion formulations were tested which contained 3% v/v aqueous phase volume, and varying amounts of calcitonin/ml of emulsion. Two, Formulations A and B below, were formulated as liquids; the third microemulsion (Formulation C) was formulated in semi-solid (suppository) form by addition of a high-melting coconut oil to the microemulsion. […]
Serum was prepared from each blood sample and serum Ca^+2 (free ionized calcium) levels were determined using a Beckman calcium clinical assay kit.

[1] = Percent activity of horseradish peroxidase (OPD assay, 492 nm) after storage at 50° C.; format: physicochemical
Experimental: In Example 10, the protein horseradish peroxidase (HRP), was stored for given times and temperatures, then assayed in vitro, as shown in this example.
After storage for the specified time at 50° C., the microemulsion was then converted to an o/w emulsion by the addition of water. This was achieved by pipetting 30 μL of the microemulsion containing the horseradish peroxidase enzyme into 970 μL of 0.9 wt. % saline (NaCl) solution.
After conversion, the emulsion was then assayed for activity. This activity was compared with the activity of stock solutions of HRP which had been maintained at 50° C. for the same time and then pipetted into saline (30 μL into 970 μL of saline) in the same manner as the microemulsion above. The stock HRP was first diluted to the same HRP concentration as in the aqueous phase of the converted microemulsion.
The assay was carried out as follows:
1. Set spectrophotometer at 492 nm and 25° C.
2. Into the cuvette, pipet 2.97 mL OPD (O-phenylene diamine) buffer solution (1 tab.→26 mL)
3. Establish blank at 492 nm.
4. Into the cuvette, pipet 25 μL diluted control HRP solution. Mix and record the increase in absorbance at 492 nm for 5 minutes.
5. Same procedure is followed for microemulsion w/HRP solution. OPD=O-phenylene diamine
Percent activity was determined by using the following equation: [formula]

[2] = rat, in vivo
Experimental: A series of experiments was carried out using rats with the w/o microemulsion of this invention to evaluate them as a vehicle for the delivery of the human growth hormone, hGH. The body fluids of the rats served to convert the microemulsion to an o/w emulsion which activated the drug and promoted drug uptake across the mucosal membrane of the rat colon.
The rats were approximately 100 grams and were fasted for 24 hours prior to testing.
The injected group, Group C, received the extracted hGH in a buffer solution at the human equivalent dose of 0.05 mg/kg body weight. The two rectal administration groups, Groups A and B, received ten times the human equivalent dose.
The rats were anaesthetized just prior to dosing. Suppositories (Group A) and the buffer solution (Group B) administered rectally were sealed in the rectum by a plug and liquid cement. Group C animals were injected subcutaneously (SQ). After administering the dosage, serum hGH levels were determined at 30, 60, 120, 180, 240, and 300 minutes. […] The blood was centrifuged and the serum assayed by hGH ELISA (Medix Lab, Foster City, Calif.) for quantitation of the extracted growth hormone.
The AUC (area under the curve) for both routes of administration was determined using the trapezoid rule (M. Gibaldi, Biopharmaceutics and Clinical Pharmacokinetics, Lea and Febiger, Philadelphia, Pa., 1984, pp. 315-16). […]

In the case of calcitonin [Saline], the “serum calcium response to rectal administration (in words)” value (Spraque-Dawley rats) was “no significant response”.
In the case of horseradish peroxidase [Control HRP], the “% Activity” value ([1]; Time 0 hours, converted with saline before assay) was 100%, the “% Activity” value ([1]; Time 3 hours) was 76% and the “% Activity” value ([1]; Time 6 hours) was 73%. The “% Activity” value ([1]; Time 24 hours) was 20%, the “% Activity” value ([1]; Time 27 hours) was 20% and the “% Activity” value ([1]; Time 48 hours) was 11%.
In the case of human growth hormone [Group C], the “AUC (area under the curve), trapezoid rule” value [2] was “approximately 24.5 ng-hr/ml”.
In the case of human growth hormone [hGH in buffer], the “uptake of the drug” value [2] was “no uptake of the drug”.
